From the nanobody polyreactivity screen of Harvey et al. (2022)

Assay: yeast display, Sf9 membrane polyspecificity reagent, FACS + sequencing; frameworks hold sequencing errors
Outline: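 Galactose induction of a Saccharomyces cerevisiae BJ5465 synthetic nanobody display library ran 36–48 hours. The cells were then stained for 1 hour at 4 °C with 10% biotinylated, detergent-solubilized Sf9 membrane reagent, pulled down on streptavidin microbeads and FACS-sorted into low and high (top ~1%) gates on expression and reagent-binding fluorescence. Labels for polyreactivity follow the gate of origin.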

| Sequence | polyreactivity (PSR sort gate) |
| --- | --- |
| QVQLVESGGGLVQAGGSLRLSCAAYGITFAYYVMGWYRQAPGKERELVAAISRSGSTYYADSVKGRFTISRDNAKITVYLQMNCLKPEDTAVYYCAVLYIRWYTYEYWGQGTQVTVSS | high polyreactivity |
| QVQLVESGGGLVQAGGSRRVSCAASGCIFGYNDMGWSRQAPGKDRELDASITWGGGRTRYADSVKGRFTISRDNAKNTVDLHMNSLKPEDTAVYYGAADKRSYSYVRPPRNQEDYWGQGTQVTVSS | low polyreactivity |
| QVQLVESGGGLVQAGGRLRLSCAASGRTFYYNGMGWYRQAPGKERELVAAITSGGTTSYADSVKGRFTISRDNAKNTVYLQMNSLKPEDTAVYYCNADYWAVNYDYWGQGTQVTVSS | low polyreactivity |
| QVQLVESGGGLVQAGGSLRLSCAASGSILFYNAMGWYRQAPGKERELVAAISSGGSTYYADSVKGRFTISRDNAKNTVYLQMNSLKPEDTAVYNCAARRRYSSVYYYYTTRRGYWGQGTQVTVSS | high polyreactivity |
| QVQLVESGGGLVQAGGSLRLSCAPSGSTFRGNAMGWYRQAPGKERELVAAITRRGGSTYYADSVKGRFTISRDNAKNTVYLQMNSLKPEDTAVYYCAKVGRETEYAYWGQGTQVTVSS | high polyreactivity |
| QVQLVESGGGLVQAGGSLRLSCAASGSIFAYYAMGWYREAPGKERELVADITSSGGITYSADSVKGRFTISRDNAKNTVYLLMNSLKPEDTAGYYCNADSWAIGGGSYPYDYWGQGTKVTVSS | low polyreactivity |
| QDQLVESGGGLVQAGGRLRLSCAASGSTFLRYAMGWYRQAPGKERELVAAINLSGDRTYYADSVKGRFTISRDKAKNTFYLQMHSLKPEDTAVYYCAARWWGPSYDAYDYWGQGTQVTVSS | low polyreactivity |
| QVQLVESGGGLVQAGGSLRLSCAASGSTFGPYAMGWYRQAPGKERELVATISGSRSSTYYADSVKGRFTISRDNAKNTVYLQMNSLKPEDTAVYYCATDLYFDLRYDYWGQGTQVTVSS | low polyreactivity |
| QVQLVESGGGIVQAGGSLRLSCAASGITFTVYAMGWYRQAPGKERELVAAITSTGSTNYADSVKGRFTISRDNAKNTVYLQMISLKPEDTAVYYCAADRQITVYAYDYWGHGTQVTVSS | low polyreactivity |
| QVQLQESGGGLVQAGGSLRLSCAASGSIFDGFNMGWYRQAPGKERECVAAISYGASTYYADSVKGRFTGSRDNAKNSVYLQMNSLKPEDTAVYYCAVYDELYHVLVYWGRGTQVTVSS | low polyreactivity |
| QVQIVESGGGLVQAGGSLRLRCAASGSISGRNGMGWYRQAPGKERELVAAISTSGASTYYADSVKGRFTISRDNSKNTVYLQMNSLKTEDTAGYYCARLWGRRGYGYWGQGTQVTVSS | high polyreactivity |
| QVQLVESGGGLVQAGGSLRLSCAASGRIIYNYAMGWYRQAPGKERELVAAITRSGGSTYYADSVKGRFTISRDNAKNTVYLQMNSLKPEDTAVYYCNATRGFGPPYFYWGQGTQVTVSS | high polyreactivity |
| QVQLVESGGGLVQAGGSLRLSCAPSGRIFQANAMGWYRQAPGKERELVASISSGVSTNYADYVKGRFTISRDNAKNTVYLQMNSQKQEDTGVYYCADSDPSSAYWVGYYWYDNWGQGTQVTVSS | low polyreactivity |
| QVQLVESGGGLVQAGGSLRLSCAASGSNFINNAMGWYRQAPGKERELVAAISYSGGRTYYADSVKGRFTISRDNAKNTVYLQMNSLKPEDTAVYYCAADRSHRMNWGQGTQVTVSS | high polyreactivity |
| QVQLVESGGGLVQAGGSLRLSCAAYGSIFVWYDMGWYRQAPGKERELVATISLSGVSTYYADSVKGRFTISRDNAKNTVYLQMNCLKPEDSAVYYCAADFVEQGEDDYWGQGTQLTVSS | low polyreactivity |
| QVQLVESGGGLVQAGGRLRLRCAASGFILDTYAMGGYRQAAGNERELVAGITVRGGSTYYADSVKGRFTISRDNAKNTVYLQMNSLKPEDTAVYYCNAAQDRFGYRRSGYWYDYWGQGTQVTVSS | low polyreactivity |

| Sequence | polyreactivity (PSR sort gate) |
| --- | --- |
| QVQLVESGGGLVQAGGSLRLSCAASGSIFSHNVMVWYRQAPGKERELVAAISGGGGRTYYADSVKGRFTISRDNAKNTVYLQMNSLKAEDTAVYYCNAYVGLSEGDYWGQGTQVSVSS | high polyreactivity |
| QVQLVESGGGVVQAGGSLRLSCAASGSIFDPYAMGWYRHARGKERELVAALNSDGSTNYADSVKGRFTISRDNAKNTDYLQLNSLKPEDTAVYYCAARTFTLRGDDSWGQGSQVTVSS | low polyreactivity |
| QVQLVESGGGLDQAGGSLRLSCAASGGTFYYYAMGWYRQPPGKERELVAAITKNGGSTYYADSVKGRFTNSRDNAKNTVYLQMNRLKPEDTAVYSCAKATVAYGWWRYNYWGQGTQVTVSS | high polyreactivity |
| QVQLVQTGGGLVQAGGSLRLSCAGSGSTFTSYVMGWYRQAPGKERELVAAITSSGGDTYYADSVKGRFTISRDNAKNTVYLQMNSVKPEDTAVYYCATRSYYRSSYYRNRYPYDYWGQGTQVTVSS | low polyreactivity |
| QVQLQESGVGLVQAYGSLRLSCAAIGSIFGYYYMGSYRQAPGKDRELVATINICGITNYADSVKGRFTISRDNAKYTVYLQMKSLKRDDTAVFYCAADEYAQRDLGYWGQGTQVTVSS | low polyreactivity |
| QVQLVESGGGLVQAGGSLRLTCAASGNTFSPNAMGWYRHAPGKERELVAAIDSRDGITYYADSVKGRFTISRDNAKNTVYLQMNSLKPEDTAVYYCAADEWYGESNFWGQGTQVTVSS | low polyreactivity |
| QVQLVESGGGLVQAGGSLRLICAASGSTFGVYDMGWYRKAPGKERELVAAISWRGITYYADSVKGRFTISRDNAKNTVYLQMNSLNPEDTAVYFCASYEWLAYTSAWYGYWGKGTQVTVSS | high polyreactivity |
| QVQLVESGGGLVQAGGSLRLSCAASGFTFDINAMGWYRQAPGKERELVADITSGGTTDYADSVKGRFTISRDNAKNTVYLQMNSLKPEDTADYYCAAEVLDAYYGDDYWGQGTQVTVSS | high polyreactivity |
| QVQLVESGGGLVQAGGSLRLSCAASGIFLGYAMGWYRQAPGKERELVAAITSGDSTYYADSVKGRLTISRDNAKNTVYLQMNSLKPEDTAVYYCAKTRYSWPRVWYNYWGQGTQVTVSS | low polyreactivity |
| QVQLVESGGGLVPAGGSLRLSCAASGFIYWYAMGWYRQAPGKETELVAAITWSGGSTYADSVKGRFTISRDNAKNTVYLQMNCLKPEDSAVYYCAADKYSQWSSHTRVRYDYWGQGTQETVSS | low polyreactivity |
| QVQLVESGGGLVQAGGSLRLICAASGYTFGGYAMGWYRQAPGKERVLVAAISTDGDSTFYADSVKGRFTISRDNAKNTVYLQMNSLKPEDTAVYYCAASVNTGSVTEYDYWGQGTQVTVSS | low polyreactivity |
| QVQLVESGGGLVQAGGSLRLSCAASGFTFNANAMGWYRQAPGKERELVAFITRSGGRTYYADSVKGRFTISRDNAKNTVYLQMNSLKPEDTAVYYCAKEGPSRVYQGTDSASDYWGQGTQVTVSS | high polyreactivity |
| QGQLVESGGGLDQAGGSLRLSCAASGSIFHGNAMGWYRQAPGKERELVAVISDGGYTDYADSVKGRFTISRDNAKNTVYLQMNSLKPEDTAGYYCNADYDTQYFYRNPIYYLSGYDYRGQGTQVTVSS | low polyreactivity |
| QVQLVESGGGLVQAGGSLRLSCAASGITFYGYDMGWYRQAPAKERELVAAITSDGITNYADSVKGRFTISRDNAKNTVYLQMNSLKPEDTAVYYCNAVFRPGSFLYDWRAYDYWGQGTQVTVSS | low polyreactivity |
| QVHLVESGGGLVQAGGSLRLSCAASGFIFYLYAMGWYRQAPGKERELVASITSSGRTNYADSVKGRFTISRDNAKNTVYLQMNSLKPEDTAVYYCNKRYSKGDEYYYWGQGTQVTVSS | high polyreactivity |
| QVQLVESGGGLDQAGGSLRLSCAASGSTFDSNTMGRSRQAPGKERELDAAITVSGGSTHYADSVKGRFTISRDNAKNTVYLQMNSLKPEDTAVYYCNRRSYGYGAFSGYDYWGQGTQVTVSS | low polyreactivity |
